The source of these data is paper PMC10749193 (Frontiers in Immunology, 2023).

The test concerns the target SARS-CoV-2 S2 subunit ectodomain (S2-ECD, 686–1213 aa) (SARS-CoV-2 Wuhan, UniProt P0DTC2). Kind of test: ELISA. The settings on record: both partners purified. In general terms: An ELISA detects its analyte on a solid surface through an enzyme-linked reagent.

B1: anti-S2 monoclonal antibody 4A5 (antibody, V domains shown)
VH: QVKLEQSGPGILQPSQTLSLTCSFSGFSLSTSGMGVSWIRQSSGKGLEWLTHIYWDDDKRYNPSLKSRLTISKDTSRNQVFLKITSVDTADTATYYCARRRMITGLYYAMDYWGQGTSVTVSS
VL: DIVMTQSTLSLPVSFGDQVSISCRSSQSLANSYGITYLSWYLHKPGQSPQLLIYGISNRFSGVPDRFSGSGSGTDFTLKISTIKPEDLGMYYCLQGTHQPWTFGGGTKLEIK
Turning to B1, the binding result is on record as “binds”.
